Assay results from the supplement of paper PMC11780869.

System: Bacillus subtilis
Assay: cleaved RNA product abundance (RNA/gDNA barcode ratio) relative to median wild-type variant (ratio to wild type); higher = more accumulation of the downstream cleavage product
Conditions: cleavage site: cggR-gapA (positions -7 to +36 mutated)
In short: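 Truncated aprE or tetM reporter mRNAs with barcoded RNase Y cleavage-site windows, mutagenized from oligos at a 9% error rate, sat in the B. subtilis chromosome. Cells grew in LB at 37°C from OD600 0.0003 to 0.3. Gel-selected cleaved RNA was reverse transcribed and its barcodes sequenced with those from genomic DNA, collapsing by UMI. Cleaved product abundance equals the RNA:gDNA barcode ratio per construct over the median construct with the unmutated site.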

[1] = experiment (reporter, strain, medium): exp 2b: truncated aprE reporter, strain BJT200
[2] = experiment (reporter, strain, medium): exp 4a: truncated aprE reporter, strain BJT201 with 2% xylose (RNase J1 expressed)

ACAGACGAAGGAGCCGCAAAGAAGTTATAAAAGGATGAATAATCCCTCAATATAAATATCTCTCACTTATTTAAA
cleaved RNA product abundance [1]: 0.153
cleaved RNA product abundance [2]: 0.165

ACAGACGAAGGAGCCGCAAAGAAGTTATAAACGGATGAATAATCCCTCAATATAAATATCTCTCACTTATTTAAA
cleaved RNA product abundance [1]: 0.132
cleaved RNA product abundance [2]: 0.181

ACAGACGAAGGAGCCGCAAAGAAGTTATAAAGAGATGAATAATCCCTCAATATAAATATCTCTCACTTATTTAAA
cleaved RNA product abundance [1]: 0.11
cleaved RNA product abundance [2]: 0.137

ACAGACGAAGGAGCCGCAAAGAAGTTATAAAGGAATGAATAATCCCTCAATATAAATATCTCTCACTTATTTAAA
cleaved RNA product abundance [1]: 0.0926
cleaved RNA product abundance [2]: 0.124

ACAGACGAAGGAGCCGCAAAGAAGTTATAAAGGCATGAATAATCCCTCAATATAAATATCTCTCACTTATTTAAA
cleaved RNA product abundance [1]: 0.122
cleaved RNA product abundance [2]: 0.113

ACAGACGAAGGAGCCGCAAAGAAGTTATAAAGGGAAGAATAATCCCTCAATATAAATATCTCTCACTTATTTAAA
cleaved RNA product abundance [1]: 0.174
cleaved RNA product abundance [2]: 0.322

ACAGACGAAGGAGCCGCAAAGAAGTTATAAAGGGACGAATAATCCCTCAATATAAATATCTCTCACTTATTTAAA
cleaved RNA product abundance [2]: 0.326

ACAGACGAAGGAGCCGCAAAGAAGTTATAAAGGGATAAATAATCCCTCAATATAAATATCTCTCACTTATTTAAA
cleaved RNA product abundance [1]: 0.316
cleaved RNA product abundance [2]: 0.358

ACAGACGAAGGAGCCGCAAAGAAGTTATAAAGGGATCAATAATCCCTCAATATAAATATCTCTCACTTATTTAAA
cleaved RNA product abundance [1]: 0.26
cleaved RNA product abundance [2]: 0.434

ACAGACGAAGGAGCCGCAAAGAAGTTATAAAGGGATGAAAAATCCCTCAATATAAATATCTCTCACTTATTTAAA
cleaved RNA product abundance [2]: 0.4

ACAGACGAAGGAGCCGCAAAGAAGTTATAAAGGGATGAACAATCCCTCAATATAAATATCTCTCACTTATTTAAA
cleaved RNA product abundance [1]: 0.261

ACAGACGAAGGAGCCGCAAAGAAGTTATAAAGGGATGAATAAACCCTCAATATAAATATCTCTCACTTATTTAAA
cleaved RNA product abundance [1]: 0.145
cleaved RNA product abundance [2]: 0.197

ACAGACGAAGGAGCCGCAAAGAAGTTATAAAGGGATGAATAACCCCTCAATATAAATATCTCTCACTTATTTAAA
cleaved RNA product abundance [2]: 0.261

ACAGACGAAGGAGCCGCAAAGAAGTTATAAAGGGATGAATAAGCCCTCAATATAAATATCTCTCACTTATTTAAA
cleaved RNA product abundance [2]: 0.172

ACAGACGAAGGAGCCGCAAAGAAGTTATAAAGGGATGAATAATCACTCAATATAAATATCTCTCACTTATTTAAA
cleaved RNA product abundance [1]: 0.107
cleaved RNA product abundance [2]: 0.169

ACAGACGAAGGAGCCGCAAAGAAGTTATAAAGGGATGAATAATCCATCAATATAAATATCTCTCACTTATTTAAA
cleaved RNA product abundance [2]: 0.26

ACAGACGAAGGAGCCGCAAAGAAGTTATAAAGGGATGAATAATCCCACAATATAAATATCTCTCACTTATTTAAA
cleaved RNA product abundance [1]: 0.175
cleaved RNA product abundance [2]: 0.183

ACAGACGAAGGAGCCGCAAAGAAGTTATAAAGGGATGAATAATCCCTAAATATAAATATCTCTCACTTATTTAAA
cleaved RNA product abundance [2]: 0.626

ACAGACGAAGGAGCCGCAAAGAAGTTATAAAGGGATGAATAATCCCTCAAAATAAATATCTCTCACTTATTTAAA
cleaved RNA product abundance [2]: 0.292

ACAGACGAAGGAGCCGCAAAGAAGTTATAAAGGGATGAATAATCCCTCAACATAAATATCTCTCACTTATTTAAA
cleaved RNA product abundance [2]: 0.304

ACAGACGAAGGAGCCGCAAAGAAGTTATAAAGGGATGAATAATCCCTCAATAAAAATATCTCTCACTTATTTAAA
cleaved RNA product abundance [1]: 0.125
cleaved RNA product abundance [2]: 0.0461

ACAGACGAAGGAGCCGCAAAGAAGTTATAAAGGGATGAATAATCCCTCAATATAAAAATCTCTCACTTATTTAAA
cleaved RNA product abundance [1]: 0.338

ACAGACGAAGGAGCCGCAAAGAAGTTATAAAGGGATGAATAATCCCTCAATATAAATAACTCTCACTTATTTAAA
cleaved RNA product abundance [2]: 0.424

ACAGACGAAGGAGCCGCAAAGAAGTTATAAAGGGATGAATAATCCCTCAATATAAATATATCTCACTTATTTAAA
cleaved RNA product abundance [2]: 0.419
